Results taken from US20100075394A1.

Molecular target: ACP-HA labeled via ACP with Cy3
Test: mock pull-down on magnetic beads from an equimolar mixture of Cy3-ACP-HA and Cy3-ACP-CaM-PCP; SDS-PAGE and in-gel fluorescence scanning; reference is ACP-CaM-PCP

enrichment of ACP-HA over ACP-CaM-PCP: 80 fold
Substance: primary-chloride-derivatized 12CA5 antibody immobilized via covalin on magnetic beads displaying BG
